Test [1] addresses T1, cynomolgus monkey NKG2A on cells (cynomolgus monkey, UniProt Q68VD2 1-233).
T1 construct: whole, on cells; On transfected CHO cells or on NK cells of cynomolgus PBMC / blood; also called CHO-cyno NKG2A; CHO-cynomolgus NKG2A
In words: flow cytometry on CHO cells expressing cynomolgus NKG2A. In general terms: A flow cytometer gives signals particle by particle.
Method: The ability of anti-NKG2A antibodies that bound to cynomolgus NKG2A-expressing CHO cells was assessed. As depicted in FIG. 22A, 1×10⁶ cynomolgus NKG2A-expressing CHO cells were incubated with titrating amounts of anti-NKG2A antibody (10 ug/ml) 10 for 30 minutes at 4° C. […] Cells were read fresh on the BD LSRFortessa.

Test [2] deals with T2, human NKG2A-CD94 heterodimer (extracellular domains) (human, UniProt Q13241 32-179).
T2 construct: extracellular domain; also called hNKG2A-heterodimer; hNKG2A-hCD94
The test is described as follows: SPR Biacore T200, 37 °C, antibody captured by anti-human Fc on C1 chip, hNKG2A-hCD94 as analyte. (Surface plasmon resonance follows binding to a sensor surface in real time, without labels.)

Test [3] concerns the target T3, human NKG2C on CHO cells (human, UniProt P26717 1-231).
T3 construct: also called CHO-human NKG2C; hNKG2C
The test is described as follows: flow cytometry, blocking of HLA-E pentamer binding to CHO cells expressing human NKG2C.

In test [4] the target is T4, human NKG2A on cells (human, UniProt P26715 1-233).
T4 construct: also called hNKG2A; CHO-hNKG2A
In words: flow cytometry, blocking of HLA-E pentamer binding to CHO cells expressing human NKG2A.

The target in test [5] is T4, human NKG2A on cells. In words: flow cytometry on NKL cells (endogenous human NKG2A), anti-human IgG-PE.
Method: Cells were washed and stained with fluorescently labeled goat anti-human IgG-PE secondary antibody for 30 minutes at 4° C. to detect the bound antibody on the cell surface. Cells were read fresh on the BD LSRFortessa.
The target in test [6] is T3, human NKG2C on CHO cells. The test is described as follows: flow cytometry, binding to CHO cells expressing human NKG2C, anti-human IgG-PE.
Method: As depicted in FIG. 18A, 1×10⁶ human NKG2A-expressing or human NKG2C-expressing CHO cells were incubated with titrating amounts of anti-NKG2A antibody for 30 minutes at 4° C. Cells were washed and stained with fluorescently labeled goat anti-human IgG-PE secondary antibody for 30 minutes at 4° C. to detect the bound antibody on the cell surface. Cells were read fresh on the BD LSRFortessa.
For test [7], the target named is T4, human NKG2A on cells. The test is described as follows: flow cytometry on CHO cells expressing human NKG2A, anti-human IgG-PE.
For test [8], the target named is T4, human NKG2A on cells. The test is described as follows: flow cytometry, blocking of labelled HLA-E pentamer on NKL cells.
Test [9] addresses T4, human NKG2A on cells. The test is described as follows: flow cytometry, blocking of labelled HLA-E pentamer on CHO cells expressing human NKG2A.
Method: As depicted in FIG. 20A, 1×10⁶ human NKG2A-expressing CHO cells were incubated with titrating amounts of anti-NKG2A antibody (10 ug/ml) for 30 minutes at 4° C. […] Cells were read fresh on the BD LSRFortessa.
Test [10] has as its target T3, human NKG2C on CHO cells. In words: FACS on CHO cells engineered to express human NKG2C-CD94.
Test [11] deals with T5, human NKG2C-CD94 heterodimer (extracellular domains) (human, UniProt Q13241 32-179).
T5 construct: extracellular domain; also called hNKG2C-heterodimer; hNKG2C-CD94
In words: SPR Biacore T200, 37 °C, antibody captured by anti-hFc on CM4 chip, heterodimer as analyte.
From the text: (§1) All data were double-referenced and fitted to a 1:1 binding model using the Biacore T200 Evaluation Software version 3.1.

In test [12] the target is T2, human NKG2A-CD94 heterodimer …. The description is as above.
From the text: as §1
In test [13] the target is T4, human NKG2A on cells. In words: flow cytometry on CHO cells expressing human NKG2A.
Test [14] has as its target T6, cynomolgus NKG2A-CD94-mFc (cynomolgus monkey, UniProt Q68VD2 94-233).
T6 construct: also called monkey NKG2A-CD94-mFc (truncated construct); cyNKG2A-CD94; not shown: mouse Fc
The test is described as follows: SPR Biacore T200, 37 °C, Fab as analyte over NKG2A-CD94-mFc immobilized on CM4 chip.

Positions count from the first letter of the chain named. Names may count otherwise.

T3 sequence (P26717 other isoform, or with tags, fused parts or gaps): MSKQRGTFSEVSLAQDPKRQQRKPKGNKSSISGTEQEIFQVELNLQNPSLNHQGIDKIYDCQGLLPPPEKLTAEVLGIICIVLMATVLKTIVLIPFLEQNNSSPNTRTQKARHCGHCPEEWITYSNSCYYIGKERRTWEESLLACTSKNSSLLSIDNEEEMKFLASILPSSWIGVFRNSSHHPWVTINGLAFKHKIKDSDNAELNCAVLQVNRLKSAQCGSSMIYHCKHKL
T1 sequence (Q68VD2 entry or part of it): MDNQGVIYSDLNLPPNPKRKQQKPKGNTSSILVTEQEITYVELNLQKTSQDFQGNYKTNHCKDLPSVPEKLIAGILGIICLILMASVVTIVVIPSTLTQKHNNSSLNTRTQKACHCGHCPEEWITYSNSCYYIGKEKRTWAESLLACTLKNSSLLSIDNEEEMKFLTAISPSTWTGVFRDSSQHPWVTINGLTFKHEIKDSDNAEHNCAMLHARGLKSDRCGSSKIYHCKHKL
T5 sequence (chain, as listed by the source, chain 1 of 2): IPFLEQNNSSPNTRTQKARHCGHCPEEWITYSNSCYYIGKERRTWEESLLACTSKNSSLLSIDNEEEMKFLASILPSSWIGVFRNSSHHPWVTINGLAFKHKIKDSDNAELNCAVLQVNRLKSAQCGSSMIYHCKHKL
T5 sequence (Q13241 32-179, chain 2 of 2): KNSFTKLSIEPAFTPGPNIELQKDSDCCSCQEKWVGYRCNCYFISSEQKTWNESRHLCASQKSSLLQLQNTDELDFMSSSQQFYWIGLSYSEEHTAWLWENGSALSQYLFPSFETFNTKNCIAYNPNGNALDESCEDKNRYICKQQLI
T4 sequence (P26715 whole entry): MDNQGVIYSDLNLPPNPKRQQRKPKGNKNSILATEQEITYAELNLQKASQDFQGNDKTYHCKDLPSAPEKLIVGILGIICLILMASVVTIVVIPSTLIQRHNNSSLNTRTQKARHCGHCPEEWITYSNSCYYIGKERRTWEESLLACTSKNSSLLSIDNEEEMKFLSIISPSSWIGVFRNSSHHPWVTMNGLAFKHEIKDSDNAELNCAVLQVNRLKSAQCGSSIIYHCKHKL
T2 sequence (chain, as listed by the source, chain 1 of 2): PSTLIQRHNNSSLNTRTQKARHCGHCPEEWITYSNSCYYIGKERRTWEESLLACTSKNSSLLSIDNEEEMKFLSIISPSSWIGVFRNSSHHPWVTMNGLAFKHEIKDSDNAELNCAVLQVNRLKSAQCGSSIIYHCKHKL
T2 sequence (Q13241 32-179, chain 2 of 2): as the sequence (Q13241 32-179, chain 2 of 2) above
T6 sequence (Q68VD2 entry or part of it): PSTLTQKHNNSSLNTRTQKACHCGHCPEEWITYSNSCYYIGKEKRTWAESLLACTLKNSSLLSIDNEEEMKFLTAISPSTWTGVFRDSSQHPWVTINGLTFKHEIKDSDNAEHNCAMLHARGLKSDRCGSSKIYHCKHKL

B1: NKG2A.11 antibody (antibody, human IgG1, kappa)
heavy: EVQLVESGGGLVKPGGSLRLSCAASGFTFSSHSMNWVRQAPGKGLEWVSAISSSSSYIYYADSVKGRFTISRDNAKNSLYLQMNSLRAEDTAVYYCAREEWGLPFDYWGQGTLVTVSSASTKGPSVFPLAPSSKSTSGGTAALGCLVKDYFPEPVTVSWNSGALTSGVHTFPAVLQSSGLYSLSSVVTVPSSSLGTQTYICNVNHKPSNTKVDKRVEPKSCDKTHTCPPCPAPEAEGAPSVFLFPPKPKDTLMISRTPEVTCVVVDVSHEDPEVKFNWYVDGVEVHNAKTKPREEQYNSTYRVVSVLTVLHQDWLNGKEYKCKVSNKALPAPIEKTISKAKGQPREPQVYTLPPSREEMTKNQVSLTCLVKGFYPSDIAVEWESNGQPENNYKTTPPVLDSDGSFFLYSKLTVDKSRWQQGNVFSCSVMHEALHNHYTQKSLSLSPG
light: AIQLTQSPSSLSASVGDRVTITCRASQGIPSALAWYQQKPGKAPKLLIYDASSLKSGVPSRFSGSGSGTDFTLTISSLQPEDFATYYCQQFNSYPLTFGQGTRLEIKRTVAAPSVFIFPPSDEQLKSGTASVVCLLNNFYPREAKVQWKVDNALQSGNSQESVTEQDSKDSTYSLSSTLTLSKADYEKHKVYACEVTHQGLSSPVTKSFNRGEC
notes: Human IgG1.3f, kappa; also called 13F3.A4 VH I107T, VK N30P; 13F3 VH I107T VK N30P
Consider B1, for which the EC50 (in general, the concentration at which the effect is half-maximal) in [1] turned out to be 1.4 nM.

B2: monalizumab (antibody, V domains shown)
VH: QVQLVQSGAEVKKPGASVKVSCKASGYTFTSYWMNWVRQAPGQGLEWMGRIDPYDSETHYAQKLQGRVTMTTDTSTSTAYMELRSLRSDDTAVYYCARGGYDFDVGTLYWFFDVWGQGTTVTVSS
VL: DIQMTQSPSSLSASVGDRVTITCRASENIYSYLAWYQQKPGKAPKLLIYNAKTLAEGVPSRFSGSGSGTDFTLTISSLQPEDFATYYCQHHYGTPRTFGGGTKVEIKR
For B2, in test [2], the “Half-life of Antibody/Analyte Complex” value was in the range of 3 to 4 s; the affinity, expressed as Kd, was 26 nM; the koff – broadly, the first-order rate constant of dissociation – came out at 0.2 s⁻¹; the kon (usually the rate constant with which the complex forms) turned out to be 7e+06 M⁻¹ s⁻¹.

B3: 11H9.A1 antibody (antibody, human IgG1, kappa, V domains shown)
VH: EVQLVESGGGLVKPGGSLRLSCAASGFTFSSYSMNWVRQAPGKGLEWVSSISSSSSYIYYADSVKGRFTISRDNAKNSLYLQMNSLRAEDTAVYYCARLLWFGEIFDYWGQGTLVTVSS
VL: AIQLTQSPSSLSASVGDRVTITCRASQGISSALAWYQQKPGKAPKLLIYDASSLKSGVPSRFSGSGSGTDFTLTISSLQPEDFATYYCQQFNSYPITFGQGTRLEIKR
notes: Hybridoma antibody; also called 11H9.A4
Take B3: the IC50 (commonly the concentration that gives 50% inhibition) amounted to 54 nM in test [3], 1 nM in [4] and 0.1 nM in test [8]. Further, the EC50 in test [5] stood at 0.1 nM; in test [6] it was 9 nM; in test [7], 0.7 nM.

B4: NKG2A.10 antibody (antibody, IgG1, V domains shown)
VH: EVQLVESGGGLVKPGGSLRLSCAASGFTFSSHSMNWVRQAPGKGLEWVSAISSSSSYIYYADSVKGRFTISRDNAKNSLYLQMNSLRAEDTAVYYCAREEWGLPFDYWGQGTLVTVSS
VL: B3 VL with S30Q, I96L
notes: IgG1.3f; also called 13F3.A4 VH-I107T, VK-N30Q
Turning to B4, the EC50 in test [1] was found to be 1.3 nM; in [7], 0.1 nM. In test [9], this molecule came in with an IC50 of 0.05 nM.

B5: NKG2A.5 antibody (antibody, V domains shown)
VH: B3 VH
VL: AIQLTQSPSSLSASVGDRVTITCRASQGISSALAWYQQKPGKAPKLLIYDASSLKSGVPSRFSGSGSGTDFTLTISSLQPEDFATYYCQQFNSYPITFGQGTRLEIK
notes: also called recombinant 11H9.A4
The molecule B5 showed an IC50 in test [9] of 0.3 nM. For the same molecule, the EC50 in test [7] came to 0.3 nM.

B6: NKG2A.14 antibody (antibody, human IgG1, kappa, V domains shown)
VH: B4 VH with T112I
VL: B3 VL with S30Q, I96L
notes: IgG1.3f; also called 13F3.A4 VK-N30Q
For the molecule B6, the IC50 in [9] was found to be 0.2 nM. In addition, the midpoint of the response in test [7], the EC50, lay at 0.1 nM.

B7: NKG2A.15 antibody (antibody, human IgG1, kappa)
heavy: EVQLVESGGGLVKPGGSLRLSCAASGFTFSSHSMNWVRQAPGKGLEWVSAISSSSSYIYYADSVKGRFTISRDNAKNSLYLQMNSLRAEDTAVYYCAREEWGLPFDYWGQGILVTVSSASTKGPSVFPLAPSSKSTSGGTAALGCLVKDYFPEPVTVSWNSGALTSGVHTFPAVLQSSGLYSLSSVVTVPSSSLGTQTYICNVNHKPSNTKVDKRVEPKSCDKTHTCPPCPAPEAEGAPSVFLFPPKPKDTLMISRTPEVTCVVVDVSHEDPEVKFNWYVDGVEVHNAKTKPREEQYNSTYRVVSVLTVLHQDWLNGKEYKCKVSNKALPAPIEKTISKAKGQPREPQVYTLPPSREEMTKNQVSLTCLVKGFYPSDIAVEWESNGQPENNYKTTPPVLDSDGSFFLYSKLTVDKSRWQQGNVFSCSVMHEALHNHYTQKSLSLSPGK
light: B1 light
notes: IgG1.3f; also called 13F3.A4 VK-N30P
In [9], B7 registered a 50% inhibitory concentration (IC50) of 0.1 nM. The EC50 in test [7] amounted to 0.1 nM.

B8: NKG2A.12 antibody (antibody, human IgG1, kappa, V domains shown)
VH: B4 VH
VL: B3 VL with S30N, I96L
notes: IgG1.3f; also called 13F3.A4 VH-I107T
Take B8: the results for the EC50 in test [1] and in test [7] were 1.2 nM and 0.2 nM, respectively. The molecule further gave an IC50 in test [9] of 0.1 nM.

B9: 1G5.B2 antibody (antibody, human IgG1, kappa, V domains shown)
VH: QVQLVESGGGVVQPGRSLRLSCAASGFTFSDYAMHWVRQTPGRGLEWLTFISYDGSNKYHADSVKGRFTISRDNSKNTLFLQMNSLRAEDTAVYYCARDSWDRGYFDLWGRGTLVTVSS
VL: EIVLTQSPATLSLSPGERATLSCRASQSVSSYLAWYQQKPGQAPRLLIYDASNRATGIPARFSGSGSGTDFTLTISSLEPEDFAVYYCQQRSNWWTFGQGTKVEIKR
notes: Hybridoma antibody; printed as IG5.B2 in two paragraphs; also called IG5.B2
With B9, the EC50 was 0.3 nM in [5] and 0.6 nM in [7]. Also, the figures for the IC50 in test [9] and in [8] were 0.7 nM and 0.4 nM, respectively.

B10: P1-069366 antibody (antibody, V domains shown)
VH: QVQLVESGGGVVQPGRSLRLSCAASGFTFSSYAMHWVRQAPGKGLEWVAVISYDGSYKEYADSVKGRFTISRDSSKNTLYLQMNSLRAEDTAVYYCARAQISEYFDYWGQGTLVTVSS
VL: DIQMTQSPSSLSASVGDRVTITCRASQGISSWLAWYQQKPEKAPKSLIYAASSLQSGVPSRFSGSGSGTDFTLTISSLQPEDFATYYCQQYNSYPLTFGQGTKVEIKR
notes: From the immune antibody library (yeast display); also called P10069366
Consider B10, for which the binding result in [10] is “no binding”.

B11: 2G6.C2 antibody (antibody, human IgG1, kappa, V domains shown)
VH: EVQLVESGGGLVQRGGSLRLSCAASGFTFSSNSMNWIRQAPGKGLEWVAHISSGSSFIYYADSVKGRFTISRDNAKNSLSLQMNSLRDEDTAVYYCARDDWGIDAFNIWGQGTMVTVSS
VL: EIVLTQSPATLSLSPGERATLSCRASQSVSSSLAWYQQKPGQAPRLLIYDASNRATGIPARFSGSGSGTDFTLTISSLEPEDFAVYYCQQRSNWIFTFGPGTKVDIKR
notes: Hybridoma antibody
Take B11: in test [1], the midpoint of the response, the EC50, lay at 0.6 nM. Also, in [11], the “Half-life of Antibody/Analyte Complex” value turned out to be 23 s, the Kd (usually the concentration at which binding is half-saturated) came out at 1100 nM, the koff came to 0.03 s⁻¹ and the kon was 28000 M⁻¹ s⁻¹. Further, in test [12], the “Half-life of Antibody/Analyte Complex” value stood at 19 s, the Kd was 91 nM, the koff is 0.036 s⁻¹ and the kon was 400000 M⁻¹ s⁻¹. In addition, in test [9], the IC50 came out at 1.3 nM. In [13], this molecule came in with an EC50 of 1 nM.

B12: NKG2A.9 Fab (Fab, V domains shown)
VH: B4 VH
VL: B5 VL with I96L
notes: Fab of NKG2A.9
In the case of B12, in [14], the “KD ratio (cy/h)” value was around 26 and the Kd is 1600 nM.
